B1: OR4K15 (parent)
chain: GUUAACGGUCAUAGGCCAUGGAAACUAGGAGCACCAUUUCGCUGCCAGUGAAGAAAUGAACAAAGAAAAUCUGGGCCAGGCAGGCAUCAAAAGAAAUAGUCUUGCGCUCAACCAGAAAGUCUGUAAUCAUUUUAAGGGUA

Variants of: B1
Experiment: self-cleavage, relative activity (ratio to wild type); higher = more cleavage; in vitro, sequencing; the parent is a self-cleaving ribozyme

Variant | self-cleavage
A23G C42G | 1.11
U102A U130A | 0.32
A47C U131C | 0.89
A90G C107A | 0.02
U2C A68G | 1.13
A51G A134G | 1.55
C35A A94G | 2.34
A30U A91U | 0.83
U9A U122G | 2.09
A22U U122A | 1.33
C85U A117G | 1.16
G58U A98G | 0.34
A64U A82U | 0.19
A90G G137C | 1.19
G7C A11G | 1.03
U131G | 0.76
A5U U19C | 1.4
A5G A68C | 1.03
G7A A78U | 0.33
U38A A68G | 0.82
U38C A94C | 1.41
A117G A129U | 1.01
A5G A30G | 1.03
A23G A117U | 0.55

Variant | self-cleavage
A11G A126G | 0.39
A60G G123A | 1.05
A54U A64U | 1.98
U122A U131C | 0.34
U72C C81A | 0.26
A56G A135U | 0.62
A18U A27C | 1.5
A36U U103C | 1.16
G74A C81A | 0.19
G41C A69G | 1.84
G28A A52U | 1.15
U43C A114G | 0.55
A78C G79A | 0.16
U12A G31A | 1.75
U39C A52U | 2.16
A11G G73A | 0.14
A23G A66G | 1.02
U57A A125G | 0.52
A62U U103G | 0.07
A54G U102A | 0.17
U132C A134U | 1.49
U37A A89G | 0.43
A111G A114G | 0.02
A22G U124C | 0.38

Variant | self-cleavage
G80A C81A | 0.11
C77U A126G | 1.49
A11G A33C | 1.98
C81U U108A | 0.02
U72C A94C | 0.1
A56G U127C | 0.96
U87A U132C | 1.35
C16G A68G | 0.69
U108C A125G | 0
A95G A117G | 2.65
A69G C71A | 0.43
A30G A62U | 1.29
G29A C40A | 1.82
U43C G58U | 0.07
A118U A129G | 0.85
U72C U139A | 0.24
A64G U70C | 0.57
G106C A118G | 0
A27C A135U | 2.25
A60G A91G | 0.99
A22U A51U | 1.14
U43C A116C | 0.07
U2C A51G | 0.84
U3C A11G | 1.34

Variant | self-cleavage
A91G C105G | 0.01
A23G U130C | 0.57
U87C A91G | 1.06
U43C A95G | 2.15
G1A G137A | 0.95
A56G A82G | 0.56
A67G U132C | 1.66
G7A A27U | 0.85
U26C A47G | 1.24
A114U U139A | 0.07
A13G A95G | 1
A116U A117G | 0.15
A33G A36U | 1.33
A63G A126G | 1.13
A5U U139C | 0.93
A95G A111C | 0.02
U72A A110G | 0.06
A98G A129G | 0.17
C113U A140G | 0.12
U39A A111G | 0.02
A18G C105U | 0.29
A62G | 1.23
A4G G75A | 0.33
A24G U102A | 0.51

Variant | self-cleavage
A62U A89U | 1.93
U37C A90U | 0.91
A91U A95G | 2.58
C40A A51G | 1.81
A11C A27U | 1.24
U38A A94G | 1.85
U49A A69G | 1.49
U43A A56C | 0.8
U39C A51G | 1.5
A51G U132A | 1.68
C25G | 1.1
A55G A86C | 1.66
U37C A62U | 1.49
C32U U87C | 1.36
G1A A82G | 1.18
A27G A110C | 0.43
U43C U120A | 2.06
U120C A135U | 0.85
G93U A134G | 1.18
A69U U127C | 1.46
G50U A96G | 2.5
A47C A125G | 0.42
A66G U131C | 1.04
A22U C76A | 0.16

Variant | self-cleavage
G1A A95G | 2.4
U103A A118C | 0.53
A11U U43C | 1.44
U87C A91U | 1.35
A36U A135U | 1.85
A54G A59G | 0.84
U57A A95G | 2.11
A36G A51G | 0.9
A51G G104A | 0.03
U12C U43C | 1.34
A56G A98U | 2.25
A22G A89U | 1.43
A23G A24U | 1.72
G83A A89G | 1.56
A11G A63C | 0.97
A63C A126U | 1.62
C40A A91G | 1.76
C17U U131C | 0.73
A23U G79A | 0.16
A67G C77A | 0.71
A27U U70A | 1.68
A23G U122A | 1.72
A30G A68U | 1.28
U2C U38C | 1.09

Variant | self-cleavage
A89U C109G | 0.01
U2C A5G | 0.24
U3C A23C | 1.42
A68U U87C | 1.78
A91U A135U | 1.6
U70C U139C | 0.7
A95G A129U | 1.52
A24G U131A | 1.22
A30G U120C | 1.04
A54U U133C | 2.23
G8A A91G | 1.17
U9C A36U | 1.48
G1A A92G | 1.66
A111G U122A | 0.01
A59C C113A | 0.02
U57G A135G | 1.74
A18G A90G | 1.36
A63C | 1.81
U38A A52G | 1.63
G7U A23C | 1.66
U49A U72C | 0.16
A11G G50U | 1.02
G74U U132A | 0.3
U38C U139C | 0.91

Variant | self-cleavage
C85A G106U | 0.03
A94G A135U | 1.8
U122A A134G | 0.73
G50U A63G | 0.92
A27C A91G | 0.64
G7A C34U | 1.3
U87A U103C | 0.68
A110G C121G | 0.2
A33U A110G | 0.08
G31C A90G | 1.73
A90U U108C | 0.01
G73U U122C | 0.1
A5G A82U | 0.41
U103C A114G | 0.51
G28U A69G | 1.57
A27U U97C | 1.75
U26C G58U | 1.48
A51G A92U | 2.09
U49A A62G | 0.7
A5G A24C | 0.68
A24G A30G | 1.01
A52G G75A | 0.23
U72A A129U | 0.23
A59U U100C | 2.73

Variant | self-cleavage
A36G A95G | 2.04
A36G A116G | 0.76
A68G A94U | 2.3
A33C U127C | 1.38
A59G C112G | 0.03
G58U U108C | 0.02
A36U U37C | 0.59
C40U U103A | 1.28
A13G U43C | 0.98
A11C A52U | 1.5
A111G A117G | 0.01
A51U A55G | 0.55
A18U A62U | 1.56
C10U G14U | 0.49
A18G U87G | 0.98
A69G A90U | 1.9
A11U A47U | 0.96
C71A U103C | 0.11
A89U A92G | 2.32
A13G A27G | 1.15
G1U A114G | 0.33
A36G U87A | 2.26
A23G A69U | 1.12
A116G A129G | 0.41

Variant | self-cleavage
U26C A89U | 0.5
A23G G80A | 0.31
C35A A51U | 1.93
A54G A114G | 0.4
A33G A129G | 0.35
U19C U43C | 0.54
A30G A114G | 0.23
C35U A52G | 1.03
A11G U39A | 0.88
A33U U122A | 2.69
A22U U57G | 1.17
A78U U132C | 0.48
C32U A63G | 1.39
A5G U122A | 1.34
A24G U70C | 0.53
C17U A23G | 1.37
A96U C113U | 0.04
C25U A92G | 0.6
G15A C113G | 0.02
U9A A117G | 2.34
A89G A116C | 0.22
A13G G20A | 0.94
A52U U102A | 0.36
A54U U124A | 0.86

Variant | self-cleavage
A110G U139A | 0.05
U39C U97C | 1.29
A13G A67C | 0.22
U26A U122A | 0.73
A116U U132A | 0.05
A66G U108C | 0.02
U37A A67U | 0.67
A68U U102A | 1.15
U72C A91C | 0.27
C45A A117G | 2.96
U57C A129G | 1.43
U102G | 0.58
A56G C101A | 0.12
A86C U130C | 0.29
U70C G123A | 1.18
U103C A135U | 1.34
C10U U38A | 0.84
A13G G93U | 0.86
G53U U87C | 0.98
C6A A11G | 2.1
U100C U127C | 1.61
U19G A94U | 1.64
U72A U132A | 0.25
A55G A129C | 0.72

Variant | self-cleavage
G84A A135G | 2.3
A64G A94U | 1.61
G74C A89G | 0.07
U3C A96U | 1.02
A92G U122A | 1.96
A91U A125G | 0.38
G21A A24G | 1.35
U26G A36G | 1.37
A89C A118G | 0.51
G20A A116G | 0.47
U2C G53U | 1.64
A110G U122G | 0.26
A22U A82U | 0.32
C40A A135G | 1.29
A56G U70C | 0.95
A60G C81U | 0.21
A23U A63G | 0.92
A51G A92G | 1.45
A33C A64C | 1.61
A27G A91C | 1.42
A55U A117U | 0.72
A11G U120A | 0.58
U9A U132C | 0.79
C81A A135G | 0.22

Variant | self-cleavage
G58A A62G | 1.01
A5C U122C | 0.99
U38A U108G | 0.01
A55G G138A | 1.54
A22G A78U | 0.32
A90G A135C | 0.91
A13U A59G | 0.41
A66G A98U | 1.08
U38A A54G | 0.28
A24G A90G | 1.03
U43C A96C | 1
A36G A92C | 2.15
G75A A116G | 0.06
A30C A140G | 1.69
U49A A96G | 1.12
G21U A59G | 1.68
A114C U122C | 0.01
A67G U124A | 0.87
A13U U108C | 0.01
U57C U133C | 1.02
A96G A111G | 0.02
U37A A116G | 0.18
G1A G138A | 2.03
A60G A140G | 1.21

Variant | self-cleavage
G79A C112G | 0.12
G79A U87A | 0.11
A96G A110C | 0.15
U70C U120C | 0.25
U39C U103C | 0.93
G99A U130C | 0.13
G1A U132C | 0.94
U43A A54G | 0.83
A18G G41A | 1.53
G14A A86G | 1.02
U39G A62G | 1.3
A51U A68C | 1.91
U70C U87C | 0.09
U39A A89G | 2.23
U120A U131C | 1.22
A5G U39C | 1.32
U43C C121U | 2.03
C113A A116G | 0.01
U72C A86U | 0.14
G15U A118G | 1.88
A126G U132A | 0.69
A47C A92G | 0.95
